{"source": "paper PMC8361696", "about": "“Regulation of aquaporin‐4 expression in the central nervous system investigated using M23‐AQP4 null mouse” (Glia, 2021)", "proteins": {"B1": {"name": "M1-AQP4 (M23I) of M23-null mouse spinal cord (natural protein, mouse (endogenous in spinal cord), UniProt P55088 1-323, looked up)", "chain": "MSDGAAARRWGKCGHSCSRESIIVAFKGVWTQAFWKAVSAEFLATLIFVLLGVGSTINWGGSENPLPVDMVLISLCFGLSIATMVQCFGHISGGHINPAVTVAMVCTRKISIAKSVFYIIAQCLGAIIGAGILYLVTPPSVVGGLGVTTVHGNLTAGHGLLVELIITFQLVFTIFASCDSKRTDVTGSIALAIGFSVAIGHLFAINYTGASMNPARSFGPAVIMGNWANHWIYWVGPIMGAVLAGALYEYVFCPDVELKRRLKEAFSKAAQQTKGSYMEVEDNRSQVETEDLILKPGVVHVIDIDRGEEKKGKDSSGEVLSSV", "notes": "mouse aquaporin-4, M1-AQP4 isoform with the methionine codon at position 23 replaced by isoleucine, so no M23-AQP4 is made; The mouse model is described in de Bellis et al., 2020; also called M1M23I; AQP4 of M23-null mice; source: endogenous, M23-null (CRISPR/Cas9 M23I knock-in) mouse spinal cord, lysate in BN buffer (1% Triton X-100)"}}, "target": "the molecule itself", "experiment": "native gel or EMSA; blue native PAGE (3-9% gradient) of 50 ug spinal cord lysate in BN buffer (1% Triton X-100, 12 mM NaCl, 500 mM 6-aminohexanoic acid, 20 mM Bis-Tris pH 7.0), immunoblot with anti-AQP4"}
{"protein": "B1", "values": [{"measurement": "stoichiometry N", "value": 4}]}
